From the supplement of paper PMC7877785
± gives the uncertainty stated by the source.

Assay: self-splicing fitness, log relative to wild type (ln ratio); higher = more splicing; Tetrahymena group I intron in knt gene, E. coli kanamycin selection, DiMSum; sequences stand for … in CUCUCU…GGAGGGAAAAGUUAUCAGGCAUGCACCUGGUAGCUAGUCUUUAAACCAAUAGAUUGCAUCGGUUUAAAAGGCAAGACCGUCAAAUUGCGGGAAAGGGGUCAACAGCCGUUCAGUACCAAGUCUCAGGGGAAACUUUGAGAUGGCCUUGCAAAGGGUAUGGUAAUAAGCUGACGGACAUGGUCCUAACCACGCAGCCAAGUCCUAAGUCAACAGAUCUUCUGUUGAUAUGGAUGCAGUUCACAGACUAAAUGUCGGUCGGGGAAGAUGUAUUCUUCUCAUAAGAUAUAGUCGGACCUCUCCUUAAUGGGAGCUAGCGGAUGAAGUGAUGCAACACUGGAGCCGCUGGGAACUAAUUUGUAUGCGAAAGUAUAUUGAUUAGUUUUGGAGUACUCGUGGUCG
Outline: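 Colonies from six replicate transformations of E. coli BL21(DE3) were pooled and amplicon-sequenced on an Illumina HiSeq 2500. The library placed an intron with all eight P1ex-region nucleotides randomised inside the knt kanamycin-resistance gene on pET-22b(+), and cells grew overnight at 37°C or 30°C on LB agar with or without 25 μg/mL kanamycin (plus 100 μg/mL carbenicillin, 50 μM IPTG, 0.2% rhamnose). Fitness is the DiMSum error-weighted combination of wild-type-normalised replicate fold changes, kanamycin versus none.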

Sequence	self-splicing fitness (ln) (30 °C)	self-splicing fitness (ln) (37 °C)
GGUGAGCAAUAUUACGACGG	-2.18 ± 0.29	-1.74 ± 0.3
GGUGAGCAAUAUUACGAGCC		-1.52 ± 0.43
GGUGAGCAAUAUUACGAGUC	-1.67 ± 0.24	-1.83 ± 0.37
GGUGAGCAAUAUUACGAUAC	-2.03 ± 0.16	-0.811 ± 0.15
GGUGAGCAAUAUUACGAUCG	-0.341 ± 0.095	0.221 ± 0.13
GGUGAGCAAUAUUACGAUGC	-1.6 ± 0.13	-0.514 ± 0.19
GGUGAGCAAUAUUACGCAGU	-2.13 ± 0.32	-2.45 ± 0.41
GGUGAGCAAUAUUACGCCUG		-1.47 ± 0.28
GGUGAGCAAUAUUACGCGCU	-1.7 ± 0.42	
GGUGAGCAAUAUUACGCUGA		-2.84 ± 0.48
GGUGAGCAAUAUUACGCUUA	-3.17 ± 0.35	-1.92 ± 0.33
GGUGAGCAAUAUUACGGGCG	-1.39 ± 0.14	-0.473 ± 0.14
GGUGAGCAAUAUUACGUAAU	-1.71 ± 0.27	-0.991 ± 0.31
GGUGAGCAAUAUUACGUAGU	-3.37 ± 0.23	-2.1 ± 0.29
GGUGAGCAAUAUUACGUCUG	-3.31 ± 0.17	-2.03 ± 0.14
GGUGAGCAAUAUUACGUGAU	-2.45 ± 0.13	-1.71 ± 0.18
GGUGAGCAAUAUUACGUGUU		-1.87 ± 0.27
GGUUAGCAAUAUUACGAAUA	-1.94 ± 0.19	-1.85 ± 0.26
GGUUAGCAAUAUUACGAGUA	-4.51 ± 0.46	-1.58 ± 0.2
GGUUAGCAAUAUUACGAUAG	-1.82 ± 0.28	-1.14 ± 0.32
GGUUAGCAAUAUUACGCAUG	-1.89 ± 0.17	-1.57 ± 0.14
GGUUAGCAAUAUUACGCGGU	-2.85 ± 0.49	-2.36 ± 0.35
GGUUAGCAAUAUUACGCUAA	-1.98 ± 0.41	
GGUUAGCAAUAUUACGCUCG	-0.367 ± 0.2	0.204 ± 0.28
GGUUAGCAAUAUUACGCUGA	-3.14 ± 0.14	-2.24 ± 0.13

Sequence	self-splicing fitness (ln) (30 °C)	self-splicing fitness (ln) (37 °C)
GGUUAGCAAUAUUACGGCGU	-0.725 ± 0.1	0.137 ± 0.13
GGUUAGCAAUAUUACGGGAG	-3.49 ± 0.24	-2.55 ± 0.25
GGUUAGCAAUAUUACGGGCA	-0.0835 ± 0.083	-0.182 ± 0.079
GGUUAGCAAUAUUACGGGGC		-2.66 ± 0.4
GGUUAGCAAUAUUACGGGUU	-1.99 ± 0.1	-1.48 ± 0.12
GGUUAGCAAUAUUACGGUGC	-1.07 ± 0.088	-0.186 ± 0.12
GGUUAGCAAUAUUACGGUGG		-1.57 ± 0.31
GGUUAGCAAUAUUACGUACA	-0.759 ± 0.11	-0.469 ± 0.11
GGUUAGCAAUAUUACGUGAA	-0.107 ± 0.13	-0.9 ± 0.14
GGUUAGCAAUAUUACGUGGG	-2.93 ± 0.2	-2.54 ± 0.18
GGUUAGCAAUAUUACGUGUC	-1.03 ± 0.097	-0.323 ± 0.12
GGUUAGCAAUAUUACGUUAG	-2.34 ± 0.13	-1.69 ± 0.19
GUAAAGCAAUAUUACGAAUU	-2.11 ± 0.16	-0.966 ± 0.18
GUAAAGCAAUAUUACGACAU	0.272 ± 0.012	0.348 ± 0.032
GUAAAGCAAUAUUACGACGU	0.341 ± 0.11	0.169 ± 0.12
GUAAAGCAAUAUUACGAGCG	-0.0732 ± 0.09	0.212 ± 0.12
GUAAAGCAAUAUUACGAUCG	-0.724 ± 0.075	0.373 ± 0.11
GUAAAGCAAUAUUACGAUGG	-1.81 ± 0.081	-0.952 ± 0.1
GUAAAGCAAUAUUACGCAGG	-1.96 ± 0.12	-0.168 ± 0.14
GUAAAGCAAUAUUACGCCAA	-0.7 ± 0.17	-0.982 ± 0.26
GUAAAGCAAUAUUACGCCAU	-1.89 ± 0.1	-0.44 ± 0.12
GUAAAGCAAUAUUACGCGGA	-1.51 ± 0.086	-1.3 ± 0.11
GUAAAGCAAUAUUACGCUGU	-0.603 ± 0.083	-1.16 ± 0.12
GUAAAGCAAUAUUACGCUUA	-1.27 ± 0.11	-0.77 ± 0.14
GUAAAGCAAUAUUACGGCCA	-0.497 ± 0.11	0.704 ± 0.17

Sequence	self-splicing fitness (ln) (30 °C)	self-splicing fitness (ln) (37 °C)
GUAAAGCAAUAUUACGGCUC	-0.0413 ± 0.071	0.298 ± 0.1
GUAAAGCAAUAUUACGGUCG	-0.377 ± 0.056	-0.0786 ± 0.088
GUAAAGCAAUAUUACGUAGA	-2.33 ± 0.1	-1.32 ± 0.12
GUAAAGCAAUAUUACGUUAU	-2.57 ± 0.14	-1.23 ± 0.17
GUAAAGCAAUAUUACGUUCA	-0.419 ± 0.072	0.177 ± 0.12
GUAAAGCAAUAUUACGUUCG	-0.724 ± 0.061	-0.407 ± 0.084
GUAAAGCAAUAUUACGUUUG	-2.28 ± 0.081	-1.34 ± 0.094
GUACAGCAAUAUUACGACCA	-1.85 ± 0.25	-0.829 ± 0.33
GUACAGCAAUAUUACGACCC	-0.186 ± 0.36	0.979 ± 0.36
GUACAGCAAUAUUACGAGGA	-3.11 ± 0.29	-1.88 ± 0.23
GUACAGCAAUAUUACGAGUA		-2.65 ± 0.31
GUACAGCAAUAUUACGCACC	-2.67 ± 0.26	-2.35 ± 0.38
GUACAGCAAUAUUACGCCUA	-1.06 ± 0.099	-0.254 ± 0.09
GUACAGCAAUAUUACGCUAA	-2.37 ± 0.14	-0.948 ± 0.11
GUACAGCAAUAUUACGGACG	-3.05 ± 0.14	-0.547 ± 0.12
GUACAGCAAUAUUACGGACU	-1.74 ± 0.062	-0.781 ± 0.081
GUACAGCAAUAUUACGGCGA	-1.14 ± 0.18	-1.09 ± 0.14
GUACAGCAAUAUUACGGGAU	-3.85 ± 0.15	-2.59 ± 0.13
GUACAGCAAUAUUACGGGCU	-3.98 ± 0.3	-2.1 ± 0.21
GUACAGCAAUAUUACGUAAC	-2.18 ± 0.14	-1.11 ± 0.12
GUACAGCAAUAUUACGUAUA	-1.77 ± 0.11	-1 ± 0.12
GUACAGCAAUAUUACGUCGC	-2.57 ± 0.15	-0.812 ± 0.16
GUACAGCAAUAUUACGUGGG	-3.76 ± 0.13	-3.18 ± 0.14
GUACAGCAAUAUUACGUGGU	-3.43 ± 0.16	-2.49 ± 0.17
GUACAGCAAUAUUACGUUAG	-2.37 ± 0.15	-1.74 ± 0.17

Sequence	self-splicing fitness (ln) (30 °C)	self-splicing fitness (ln) (37 °C)
GUACAGCAAUAUUACGUUUU	-3.88 ± 0.17	-2.72 ± 0.14
GUAGAGCAAUAUUACGAACG	-2.44 ± 0.22	-1.38 ± 0.2
GUAGAGCAAUAUUACGAAUC	-1.28 ± 0.2	-0.812 ± 0.29
GUAGAGCAAUAUUACGACAC	-0.732 ± 0.15	0.357 ± 0.2
GUAGAGCAAUAUUACGCAAU	-2.52 ± 0.11	-0.0736 ± 0.11
GUAGAGCAAUAUUACGCAGG	-1.51 ± 0.15	-1.59 ± 0.15
GUAGAGCAAUAUUACGCGGA	-1.47 ± 0.14	-0.734 ± 0.12
GUAGAGCAAUAUUACGCUGG	-1.56 ± 0.17	-1.53 ± 0.24
GUAGAGCAAUAUUACGCUUC	-3.16 ± 0.45	-1.63 ± 0.27
GUAGAGCAAUAUUACGGAAG	-2.83 ± 0.29	-1.42 ± 0.4
GUAGAGCAAUAUUACGGCAU	-0.0916 ± 0.085	0.127 ± 0.12
GUAGAGCAAUAUUACGGCCU	-0.447 ± 0.11	-0.0153 ± 0.14
GUAGAGCAAUAUUACGGCUC	-1.57 ± 0.26	-0.26 ± 0.45
GUAGAGCAAUAUUACGGGGC		-1.52 ± 0.36
GUAGAGCAAUAUUACGGGUA	-4.17 ± 0.35	-1.75 ± 0.19
GUAGAGCAAUAUUACGGUAA	-1.74 ± 0.15	-1.3 ± 0.19
GUAGAGCAAUAUUACGGUUA	-1.35 ± 0.11	-0.0418 ± 0.13
GUAGAGCAAUAUUACGUAGU		-0.866 ± 0.15
GUAGAGCAAUAUUACGUAUA	-1.7 ± 0.28	-0.319 ± 0.25
GUAGAGCAAUAUUACGUCGG	-1.87 ± 0.15	-1.61 ± 0.22
GUAGAGCAAUAUUACGUGCA	-0.339 ± 0.11	0.541 ± 0.18
GUAGAGCAAUAUUACGUUGC	-4.29 ± 0.3	-3.11 ± 0.24
GUAGAGCAAUAUUACGUUUC	-1.87 ± 0.15	-0.679 ± 0.17
